Experiments:
SARS-CoV RBD = SARS-CoV RBD (SARS-CoV, GenBank NC_004718.3, UniProt P59594); experiment: BLI
[1] = target: T1, Recombinant RBD protein of SARS-CoV-2 with His tag (SARS-CoV-2, UniProt P0DTC2); experiment: ELISA
[2] = target: SARS-CoV-2 S on 293T cells expressing SARS-CoV-2 S (SARS-CoV-2-S cells) (SARS-CoV-2, UniProt P0DTC2); experiment: flow cytometry on cells
[3] = target: T1, Recombinant RBD protein of SARS-CoV-2 …; experiment: flow cytometry on cells

B1: HB27, humanized anti-SARS-CoV-2 monoclonal antibody (IgG) (antibody, V domains shown)
VH: VKLVESGGGLVKPGGSLRLSCAASGFTFTNYGMSWVRQAPGKRLEWVAEISSGGSYTYYPDTVTGRFTISRDNAKNTLYLQMNSLRAEDTAVYYCARFRYGGGGTVDYWGQGTLVTVSS
VL: IVLTQSPTLSLSPGERATLSCRASESVDNYGISFMNWFQQKPGQAPRLLIYAASNQGSGIPSRFSGSGSGTDFSLTISSLEPEDFAVYFCQQSKEVPRIFGQGTKVEIL
With B1 the binding result (SARS-CoV RBD) was “no binding”, the EC50 [1] was 0.5 nM and the EC50 [2] was 5 to 50 nM. It also gave an EC50 [3] of 5 to 50 nM.

Source: doi:10.1101/2020.11.24.393629 (bioRxiv, 2020)
